The labels stand for the following.
B1: ILDKKVEKV (peptide)
peptide: ILDKKVEKV
B2: GLYPGLIWL (peptide)
peptide: GLYPGLIWL
notes: also called p1031
B3: ALSDHHIYL (peptide)
peptide: ALSDHHIYL
notes: also called p1068
B4: SLSEKTVLL (peptide)
peptide: SLSEKTVLL
notes: also called p989 of CD59
B5: LLLDVPTAAVQA (peptide)
peptide: LLLDVPTAAVQA
notes: also called p1210; p11210
B6: GLIEKNIEL (peptide)
peptide: GLIEKNIEL
notes: also called p1028
B7: YLLPAIVHI (peptide)
peptide: YLLPAIVHI
B8: SLLPPTALVGL (peptide)
peptide: SLLPPTALVGL
notes: also called p1080
B9: SLLPPDALVGL (peptide)
peptide: SLLPPDALVGL
notes: also called p1094
B10: LLDVPTAAV (peptide)
peptide: LLDVPTAAV
notes: also called p898
B11: GLLGTLVQL (peptide)
peptide: GLLGTLVQL
notes: also called p913
B12: SLWGQPAEA (peptide)
peptide: SLWGQPAEA
notes: also called p958
B13: FLFDGSPTYVL (peptide)
peptide: FLFDGSPTYVL
notes: also called p1258
B14: SLFPGKLEV (peptide)
peptide: SLFPGKLEV
notes: also called p989 of FLI
B15: LLLDVPTAAV (peptide)
peptide: LLLDVPTAAV
notes: also called p1011

The target of the first assay is soluble HLA-A2 (Homo sapiens, UniProt P04439, D140Y/D185E/D98H/E176V/E277Q/G131W/G231S/I119V/I121R/I166T/I218V/N151K/N90K/P208A/P217A/Q86G/Q94H/R138H/R169H). Put plainly: Appearance of peptides recovered from soluble HLA-A2 of cancer cell lines (ESI-MS/MS). Particulars: MCF-7, MDA-231, PC3, UCI-107. The text has this: Cell lines were co-transfected with plasmid HLA-A2/Q10^b and with phβ2m, which conferred resistance to the antibiotic G418 or transfected only with the plasmids sHLA-A2, sHLA-B7 and sHLA-Cw4 that contained the antibiotic resistance. Cells were electroporated by use of a Gene Pulser (Bio-Rad) set at […] 960 μF. Transfected cell clones were selected in G418 antibiotic and screened for those secreting sMHC to the growth medium. […] Color was developed with ABTS (Sigma) catalyzed by streptavidin peroxidase (Sigma).
Cultured cells, expressing the soluble MHC were grown to confluency in 150 mm plates. The culture medium was collected and residual cells were removed by centrifugation. […] The antibodies were coupled to NHS-activated agarose (Pharmacia) or to protein A Sepharose (Sigma) with n-methylpipelimidate (Sigma). The columns were washed with 0.5 M NaCl, 20 mM, Tris pH 8. The MHC molecules were eluted from the column with 0.1 M acetic acid at pH 3. Peptides were separated from the MHC complexes by boiling for five minutes in 10% acetic acid followed by ultra-filtration through a 3 kDa Microcon (Amincon).
The MHC bound peptides were resolved by reverse-phase HPLC on a 0.1 ID fused silica capillaries with length of about 30 cm (J&W) slurry packed with POROS 10 R2 (PerSepetive Biosystems). The capillaries were fitted with electrospray needle made from 36-gauge stainless tubing (Small Parts Inc. Miami Lakes, Fla.). A Rheodyne 9125 HPLC injector fitted with a 20 μl loop was used for loading the column. The peptides were resolved by a relatively long (90 minutes) linear gradient of 5 to 50% acetonitrile with 0.1% acetic acid, at a flow rate of about 1 μl/minute. The flow was electrosprayed directly from the HPLC column into an ion trap mass spectrometer (LCQ, Finnigan). The mass spectrometry analysis was done in the positive ion mode, using repetitively a full MS scan usually between 450 to 1500 atomic mass units (amu) followed by collision-induced decomposition (CID) of the dominant ion selected from the previous MS scan. In some cases the full MS was performed with a narrower mass range to reduce the number of detected peptides. The peptides were identified by comparing their MS and CID data to the calculated MS and CID of the proteins in the Genpept databank (www.ncbi.nlm.nih.gov/genpept) using the Sequest software (obtained from Finnigan, San Jose, Calif.). The number of times each peptide was fragmented by CID was usually limited to two by dynamic exclusion, a feature of the Xcalibur control software the LCQ mass spectrometer (Finnigan).
With “SLLGGDVVSV [from TSC-22 related protein]”, the “appearance of peptide in soluble HLA-A2 from cell lines of different tissue origin” value (“appearance … of different tissue origin” below) is “detected at high level in the two-breast cancer cells (MCF-7 and MDA-231), but was not observed in the ovarian (UCI-107) and the prostate (PC3) cancer cells”. On the same count and under the same terms, next, ALFGALFLA: “recovered only from PC3 cells”.

As to “SLIGHLQTL [from protein tyrosine posphatase]”, the “appearance … of different tissue origin” value is “detected only in the breast cancer cell MDA-231”.

As to “GVYDGEEHSV [from MAGE XP-2 protein (MAGE-B2)]”, the “appearance … of different tissue origin” value is “detected only in the ovarian cancer cells (UCI-107)”. On to NLTISDVSV [from MUC1], for which the “appearance … of different tissue origin” value was “recovered only from MCF-7 grown without estrogen”.

A further assay relates to EL4-HHD cells loaded with the synthetic peptides. Kind of assay: Cytotoxic T lymphocytes assay after immunization of HHD transgenic mice. Type of assay: in vivo. Particulars: compared to negative control peptide ALLCAPSLL; effector-to-target ratio 50:1 shown. The text has this: Cells were loaded separately with individual peptides, washed and injected in four groups: 1-p1028 (SEQ ID NO:13) alone, 2-p1258 (SEQ ID NO:24) alone, 3—pool of peptides: p913 (SEQ ID NO:5), p958 (SEQ ID NO:9), p989 of CD59 (SEQ ID NO:11) and p989 of FLI (SEQ ID NO:12), 4—peptides p1031 (SEQ ID NO:14), p1121 (SEQ ID NO:22) and p1068 (SEQ ID NO:16). Unloaded EL4-HHD or targets cells not loaded with the peptides were used as negative controls. An effector-to-target ratio of 50:1 is shown.
Transgenic mice expressing a single chain HLA-A2.1/Db-β2m which are double knockout for H-2 Db and for β2m (HHD mice) were immunized four times intra-peritoneally at 7-day interval with 2×10^6 irradiated (5,000 rad) RMA-S-HHD-B7.1 cells loaded for two hours at 26° C. followed by two hours at 37° C. with 100 μM of the synthetic peptides. Ten days after the last immunization the spleens were removed from the vaccinated mice. Splenocytes were re-stimulated with 100 μM of synthetic peptides for five days. Viable lymphocytes were separated by lympholyte-M (Cadarlane, Homby, Canada) and resuspended in RPMI-HEPES. Cytotoxic activity was measured as in [26] by admixing the lymphocytes at different ratios with 5×10^3 EL4-HHD cells grown in medium containing ^35S methionine and then loaded with the synthetic peptides.
To further evaluate the affinity of the peptides to the HLA-A2 and to obtain some insight into their immunogenic potential, selected peptides were tested for their ability to induce an immune response in HLA-A2 transgenic mice. It was assumed that only peptides that could be effectively presented and remain tightly bound to the cells would be capable of inducing an immune response in these mice. The same synthetic peptides that were used for the FACS analysis were used for immunization of the HHD transgenic mice, which express the human HLA-A2.1/Db-β2m single chain. To immunize the mice, the HHD culture cells were loaded with the different peptides and then injected to the HHD mice. The immune response in the mice was followed by the appearance of CTLs specific for these peptides. Some of the peptides were indeed capable of inducing an immune response, which both authenticate them as MHC bound peptides and gives an indication about their immunogenic potential.
As to FLFDGSPTYVL [from fatty acid synthase], the “lysis of EL4-HHD cells loaded with the peptides by CTLs of immunized HHD mice” value was “significant lysis”. The same measure, in the same setting: next, TLWVDPYEV [from BTG2]: “significant lysis”; ALSDHHIYL [from aldolase A]: “significant lysis”. The same measure, in the same setting: under “GLIEKNIEL [from DNA (cytosine-5-)-methyltransferase]” stands “significant lysis”.

The next assay concerns the target T1, sHLA-A2 (human).
T1 construct: also called sA2; sMHC-A2
Put plainly: sMHC eluate MS, UCI-101.
Conditions: not given
As for B1, the binding result is “binds”. On the same count and under the same terms, under B2 stands “binds”; under B3, “binds”; under B4, “binds”. The same measure, in the same setting: under B5 stands “binds”; under B6, “binds”; under B7, “binds”. The same measure, in the same setting: under B8 stands “binds”; under B9, “binds”. Consider B10, for which the binding result is “binds”.

Turning to B11, the binding result was “binds”. Same read-out and setting: under B12 stands “binds”. On the same count and under the same terms, next, B13: “binds”. On the same count and under the same terms, next, B14: “binds”; B15: “binds”.

The test system of another assay is T2, HLA-A2.1.
T2 construct: expressed in transfected cells; host or cells: RMA-S-HHD (murine TAP-2 deficient lymphoma, C57BL/6 origin)
Kind of assay: Stabilization of cell surface HLA-A2.1 by peptide binding on RMA-S-HHD cells (FACS). It is filed as cell-based, human. Conditions: 100 μM peptide, 2 h 26° C. + 2 h 37° C., FACS with W6/32 mAb. As to the method: Synthetic peptides were added to […] RMA-S-HHD cells to a concentration of […] followed by incubation for two hours at 26° C. and two hours at 37° C. […] The HLA-A2.1 peptide derived from gp100 served as a positive control and unloaded RMA-S-HHD cells as a negative control.
RMA-S-HHD cells were washed three times with PBS followed by incubation overnight in FCS-free IMDM medium at 26° C. Synthetic peptides were added to 10^6 cells at a concentration of 100 μM. The cells were incubated for two hours at 26° C. followed by two hours at 37° C. […] (Sigma).
Another approach to ascertain that the identified peptides were indeed MHC bound peptide antigens, their capacity to bind tightly and stabilize cell surface HLA-A2.1 was tested by reconstitution into empty MHC on the surface of RMA-S-HHD cells.
Consider “GVYDGEEHSV [from MAGE XP-2 protein (MAGE-B2)]”, for which the “binding affinity to MHC by reconstitution and stabilization of empty MHC on the surface of RMA-S-HHD cells” value is on record as “normal”.

Values taken from patent US20050053918A1, “Method of identifying peptides capable of binding to MHC molecules, peptides identified thereby and their uses” (priority 2001, published 2005).
